Assay results published in the supplement of paper PMC10567573.

B1: LRRC45 (parent)
chain: FQTRQEMTSMSAELKMRAIQAEER

Variants of: B1
Assay: protein stability index of a GFP-peptide fusion (GPS, HEK-293T) (PSI 1-6); higher = more stable
Conditions: c terminus: a fixed tail appended
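Further: lentivirally expressed fusions sorted by FACS into six bins by GFP to DsRed ratio, PSI derived from sequencing read proportions per bin multiplied by bin number.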

Protein stability index: each site, then its substitutions
R4: W 2.48 | S 4.39 | F 3.37 | M 3.94 | Y 3.88 | D 4.99 | C 4.63 | I 4.09 | L 4.4 | E 4.95 | K 4.08 | P 4.62 | N 4.35 | V 3.77 | A 4.09 | Q 4.14 | G 4.34 | H 3.66 | T 4.46
T3: C 3.02 | S 3.97 | H 3.42 | Q 3.83 | V 3.43 | Y 3.22 | E 5.23 | P 4.04 | W 2.06 | K 4.28 | D 4.4 | G 3.72 | L 3.76 | F 3.95 | M 3.52 | A 4.32 | I 3.86 | N 3.52 | R 3.55
Q5: M 3.32 | N 4.25 | S 3.97 | R 3.7 | A 3.83 | G 4.85 | F 2.04 | L 3.77 | H 3.54 | W 1.66 | E 4.31 | P 3.99 | I 3.11 | K 4.08 | Y 1.79 | D 4.71 | C 2.82 | T 3.65 | V 3.97
E6: G 3.48 | T 3.88 | R 3.72 | I 2.5 | C 3.33 | D 3.63 | A 3.42 | P 2.78 | V 3.11 | H 3.02 | N 3.87 | Q 3.44 | L 3.03 | S 4.01 | K 3.53 | M 3.36 | F 2.27
Q2: Y 3.78 | E 5.13 | G 4.85 | M 4.3 | A 3.67 | T 3.92 | L 3.76 | V 2.23 | P 4.69 | N 3.89 | K 3.59 | R 4.18 | H 2.27 | I 2.93 | D 4.48 | F 4.36 | S 4.85 | C 3.29 | W 4.01
T8: H 4.38 | C 3.11 | Y 2.69 | V 3.76 | Q 4.28 | I 3.8 | G 4.33 | E 4.57 | N 3.92 | R 4.26 | A 3.85 | F 2.19 | D 4.16 | P 3.94 | K 3.86 | M 3.47 | L 3.79 | S 3.72 | W 1.34
F1: T 5.21 | P 4.5 | L 5.21 | V 4.92 | I 4.27 | R 4.42 | M 4.52 | H 4.85 | Y 4.02 | S 5.1 | N 5.13 | K 5.1 | Q 5.21 | W 4.66
S9: H 3.84 | E 4.49 | K 4.32 | D 4.05 | F 3.02 | C 3.41 | I 3.58 | W 2.32 | T 3.96 | N 4.28 | G 4.11 | L 4.12 | Q 3.73 | P 4.01 | Y 3.28 | R 3.78 | M 4.17 | V 3.51 | A 4.43
M7: C 3.6 | N 3.71 | I 3.41 | Q 4.14 | R 4.26 | V 3.4 | D 4.64 | G 3.93 | L 3.77 | A 4.26 | P 3.71 | E 4.57 | K 4.02 | S 4.27 | F 3 | H 4.28 | W 2.68 | T 4.61 | Y 3.31
M10: A 3.84 | C 2.53 | D 3.98
